The nanobody polyreactivity screen of Harvey et al. (2022)

Assay: yeast display, Sf9 membrane polyspecificity reagent, FACS + sequencing; frameworks hold sequencing errors
In short: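 Genes from sorted yeast were amplified by colony PCR, read by MiSeq 2 × 250 sequencing and filtered on CDR length. These cells carried a synthetic nanobody library in Saccharomyces cerevisiae BJ5465 and were sorted by FACS into low and high (top ~1%) gates on anti-HA and streptavidin fluorescence. Polyreactivity is labelled according to the gate of origin.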

Sequence	polyreactivity (PSR sort gate)
QVNLVESGGGLVQAGGSLRLSCAASGRIFRKYAMGWYRQAPGKVREFVAAITVSGDRTYYADSVKGRFTISRDNAKNNVYLQMNSLKPEDTAVYYCATKGYYYPYVTYDYWGQGTQVTVSS	low polyreactivity
QVNLVESGGGLVQAGGSLRLSCAASGSIFSKNAMGWYRQAPGRERELVAAITSGASTNYADSVKGRFTISRDNAKNTVYLQMNSLKPEDTAVYYCASKRNGFWYGYWGQGTHVTVSS	low polyreactivity
QVNLVESGGGLVQAGGSLRLSCAASGSIFVGYAMRWYRQAPGKERELVAAISSNSASTYYADSVKGRFTISRDNAKNTLYLQMNSLKPEDTEVYYCATAYRSYWLNDYWGQGTQVTVSS	low polyreactivity
QVPLAETGGGLVQAGGSLRLSCASSGSIYRYAMGWYRKEPGKEREFVAANTWNGGSTYYADSVKGRLTRSLDYAKNTVYLPMNSLKPEDTAVYNCAADWSYFRRHFDYWVQGTQVTVSS	high polyreactivity
QVPLQVSGGYLVQAGGSVRLSCAASGTIYGLTALGWYRQAPGKEREFVAAITDGGNTNYADSVKGRFTISRDNAKNTVYLQMLSLKPEDTAVYYCAVLFSDDAYYAYWGQGTQVTVSS	low polyreactivity
QVPLVESAGGLVQAGGSLRLSCAASGITLYVYAKGWYRQAPGKERELVAAINSGGNTYYADSVKGRFTISRDNAKNTVYLQMNSLKPADTAVYYCAAVYPRQVSHVWRDDYWGQGTQVTVSS	high polyreactivity
QVPLVESGGGLVQAAGSLRLSCAASGRISLGYAMGWYRQAPGKERELVAAISRGGTNTYYADSVKGRFTISRDNAKNTVYLQMNSLKPEDTAVYYCAARYSWGQGTQVTVSS	high polyreactivity
QVPLVESGGGLVQAGGRLRISCAASGITCTFYSMGWYREAPGKESELVAAISRRGGSTYYADSVKGRFTISRDNEKNTVYLHMNSLKPEDTAVYYCAARGYRPMDYWGQGTQVTVSS	high polyreactivity
QVPLVESGGGLVQAGGSLRISCAASGSTFWYYAMGWYRQAPGKEREMVATITSTGTTNYADSVKGRFTISRDTAKNTVYLQMNSLKPEDTAVYYCNARSWSYSYPYLTYYYIAGYWGQGTQVTVSS	low polyreactivity
QVPLVESGGGLVQAGGSLRLSCAASGFIFPNYVMGWYRQEPGKEREFVAGISVRGGRTYYADSVKGRFTISRDNAKNTVYLQMNSLKPEDTAVYYCAADRKASAFNYWGQGTQVTVSS	high polyreactivity
QVPLVESGGGLVQAGGSLRLSCAASGLTFRDNAMGCSRQAPGKERELVAALSTNGGSTYYADSVTGRFTISRDNAKNTVYLQLNSLKPEDTALYVCAKSFLPQYPQVDSDYWGQGTQVTVSS	low polyreactivity
QVPLVESGGGLVQAGGSLRLSCAASGRTFPRYAMGWYRQAPGKERELVATISSGGSTNYADSVKGRFTISLDNAKNTVYLQMNSLKPEDTAVYYCAARYGRTYTRVGYWGQGTQVTVSS	high polyreactivity
QVPLVESGGGLVQAGGSLRLSCAASGSIFTVYAVGWYRQAPGKERELVASIRFSSGRTYYADSVKGRFTISRDNAKNTVYLHMTSLKPEDTAVYYCAAETVSWYRYYYWGQGTQVTVSS	high polyreactivity
QVPLVESGGGLVQSGGSLRLSCAASGSTCSRNAMGWYREAPGKERELVAAINDSGGSTYYADSVKGRFTISRDMAKNTVYLQMNSLKPEDTAVYYCNAVSPYYWDFRYDYWGQGTQVTVSS	high polyreactivity
QVPLVESGVGLVQAGGSLRLSCAASGYTFYSYAMGWYRQAPGKEREFVAAIRTGGGTNYADSVKGRFTISRDNAKNTVYLQMNSLKPEDTAVYYCAARYYSQKSYIGFRPGYEYWGQGTQVTVSS	low polyreactivity
QVQFVESGGGLVQAGGSLRLSCAASGSIFSSYAMGWYRQAPGKERELVAVINSGGSTNYADSVKGRFTISRDNAKNTVYLHMNSLKPEDTAVYYCNAYGGTFHNTAAEFDYWGQGTQVTVSS	low polyreactivity
QVQFVESGGGLVQAGGSLRLSCAASGSTFQGYAMGWYRQAPGKERELVAAISRSGGRTYYADSVKGRFTISRDNAKNTVYLQMNSLKPEDTAVYYCAAEGHELTEGDSWGQGTQVTVSS	low polyreactivity
QVQFVESGGGLVQAGGSLRLSCAASGSTFQGYAMGWYRQAPGKERELVAAISRSGGRTYYADSVKGRFTISRDNAKNTVYLQMNSLKPEDTAVYYCAKYYWAPTGAHGGYGYWGQGTQVTVSS	low polyreactivity
QVQFVESGGGLVQSGGSLRLSCAASGSIFRAYAMGWYRPAPGKEREFVAAISRRGGSTSYADSVKGRFTISRDYAKNTVYLQMNSLKPEDTAVYYCAATYQILTTSAHDSWGQGTQVTVSS	high polyreactivity
QVQHEESGGGLVQAGGSLRLSCAASGYTFSFYAMGWSRQAPGKERELVAAISSSDGTTYYADSVKGRFTISRDNAKNTVYLQMNSLKPQDTAVYYCNTRYVRQVVGTYTLKTRYYWGQGTQVTVSS	high polyreactivity
QVQHGESGGGLVQAGGSLRLSCAASGRIFYYYAMGWYRQAPGKERELVAAITWNAGITYYADSVKGRFTISRDNAKNTVYLQMNSLKPEDSAVYYCAASRWARGRDYWGQGTQVTVSS	high polyreactivity
QVQHLESRGGLVQAGGSLRLSCAASGSIFASNAMGWYRPAPGKEREFVAAITWRTDRTYYADSVKGRYTISRDIAKNTVYLQMNSLKPEDTAVYYCNAGRRVYYYSAYYGGGYWGQGTQVTVSS	high polyreactivity

Sequence	polyreactivity (PSR sort gate)
QVQHVDSGGCLVQAGGTLRLSCAASGFTLWAYAMGWYRQAPGKEREFVAVISRSDGSTYYADSVKGRFTISRENAKNTVYLQMNSLKPEDSAVYYCAAKHRGAKYDYWGQGTQVTVSS	low polyreactivity
QVQHVDSGGGLFQAAGSLRLSCAASGGTFSFYTMGWSRQGPGKERELVAAIDSTGRTNYADSVKGRFTISRDKAKNTVYLQMNSLKPEDSAVYYCSAGPPRADYDYWGQGTQVTVSS	low polyreactivity
QVQHVDSGGGLVQAGGSLRLSCAASGFIFAYNIMGWYRQAPGKERELVADISGTGSTNYADSVKGRFTISRDNAKNTVYLQMNSLKPEDTAVYYCATSGDRLVWGQGTLVTVSS	low polyreactivity
QVQHVDSGGRLVQAGGRLRLSCAASGRIITYYARGWNRQAPGKERELVAAISGRGGGTYYADSVKGRFTISRDNAKNTVYLQMNSLKPADTAVYYCNAYYSRLRYDYWGQGTQVTVSS	high polyreactivity
QVQHVESAGGLVQAAGSLRLSCAASGLSYSRYAMGWYRQAPGKERELVAAITWSGSSTYYADSVKGRFTISRDNAKNTVYLQMNSLKPEDTAVYYCAGRYGYSRGPYYRSDYWGQGTQVTVSS	high polyreactivity
QVQHVESAGGLVQEAGSLRLRCAASGSTFYSYAMGWSRQAPGKERELVAAISRSGGRTNYADSVKGRFTISRDIAKNTVYLQMNSLKPEDTAVYYCNARHYLSAYDYWGQGTQVTVSS	high polyreactivity
QVQHVESCGGLVQAGGSLRLSCAASGRIINSNDMGWYRQAPGKERELVAAISKRGGSTFYADSVKGRFTISRDNAKNTVYLQRNSLKPEDTAVYYCAADKWTYYYAVDSWGQGTQVTVSS	high polyreactivity
QVQHVESGAGLVQAGGSLRLSCAASGRTFYYYAMGWYRQAPGKERELVAAISTNGGSTSYADSVKGRFTISRDNAKNTVYLQMNSLKPEDSAVYYSAAYYRTPTDVEYDYWGQGTQVTVSS	high polyreactivity
QVQHVESGGALVQAGGSLRLSCAASGSTYYIYAMGWYRHGPGKERELVARISGSGGSTYYADSVKGRFTISRDNAKNTVYLQMNSLKPEDTAVYYCAADDIYKYYQYYAFQYFRYDYWGQGTQVTVSS	low polyreactivity
QVQHVESGGCLFQAGGILRLSCAASGIIFTYYDMGWYRQAPGKERELVAGIDYSGTSTYYADSVKGRFTISRDNAKNTVYLQMNSLKPEDTAVYYCAAVPVWVVYFSGEYYYWGQGTQVTVSS	high polyreactivity
QVQHVESGGCLVQARGSLRLSCASSGRTFDIYARGWYRHPPGKESELVAVISASGGSTYYADSVKGRFTISRDNAKNTVYLQMNSLKPEDTAVYYCAARYWFRFQYDYWGQGTQVTVSS	high polyreactivity
QVQHVESGGGIVQAGGSLRLSCAASGSIFVRYAMGWYRQAPGKERESVAAISASGSSTYYADSVKGRFTISRDNAKNTVYLQMNSLKPEDTADYYCNAVRARRFDYWGQGTQVTVSS	high polyreactivity
QVQHVESGGGIVQAGGSLRLSCAASGSIFYQYAMGWYRQSPGKERELVAASSRSGGSTYYADSVKGRFTISRHNAKNTVYLQMNSLKPEDTAVYYCAARAVRAAYDYWGQGTQVTVSS	low polyreactivity
QVQHVESGGGKVQAGGSLRLSCASSGFTIMSYAMGWYRQAPGKERELVAAISRSGGSTYYADSVKGRFTISRDKAKNTVYLQMISLKPEDTAVYYCAARSAFRKQFSRNNYWGQGSQVTVSS	high polyreactivity
QVQHVESGGGLDQAARSLRLICAASGSIFTDNGMGWYRQAPGKERELVAAISWRGGTYYADSVKGRFTISRDNAKNSVYLQMNSLKPEDTAVYYCNADPEAEGNFEYYYWGQGTQVTVSS	low polyreactivity
QVQHVESGGGLDQAGGSLRLSCAASGITFEGYAMGWYRQAPGKERELVAAIRSSGTSTYYADSVKGRFTISRDNAKNTFYLQMISLKPEETAVYYCNRARSSYSYDYWGQGTQVTVSS	low polyreactivity
QVQHVESGGGLDQAGGSLRLSCAASGRTFSYYTMGWYRQAPGKERELVARISNRGTNTYYADSVKGRFTISRDNSKNTVYLQMNSLKPEDTAVYYCAKYYYTSIVGYDSWGQGTQVTVSS	low polyreactivity
QVQHVESGGGLDQAGGSLRLSCAASGSIFNGYAMGWYRQAPGKERELVADIRSGGSTYYADSVKGRFTISRDNAKNTVYLQMNSLKPEDTAVYYCAGDTITDGYDYWGQGTQVTVSS	low polyreactivity
QVQHVESGGGLDQAGGSLRLSCAASGSIYVGNEMGWSRQATGKETELVDTISWSGGSTYYADSVKGRFTISRDNAKNTVYLQMNSLKPEDTAVYYCAKTPYRRYRYGGYNYRTYDYWGQGTQVTVSS	low polyreactivity
QVQHVESGGGLFQAGGSLRLSCAASGQNFRPYALGWDRQAPGKERELVAAIRWSDDSTYFAVSVKGRFTILRDNAKNTVYLQLNSLKPEDTAVYYCNARWWYPTYYYWGQGSQVTVSS	high polyreactivity
QVQHVESGGGLLQAGGSLRLSCAASGFTFNANAMGWYRQAPGKERELVAVITRSGGRTYYADSVKGRFTISRDNAKNTVYLQMNSLKPEDTAVYYCNAKGWTRPPCYDYWGQGTQVTVSS	high polyreactivity
